{"source": "paper PMC2854097", "about": "(Molecular Biology of the Cell, 2010)", "binders": {"B1": {"name": "HA-β2-chimaerin (full-length) (natural protein, UniProt P52757-1 1-468, looked up)", "chain": "MAASSNSSLSGSSVSSDAEEYQPPIWKSYLYQLQQEAPRPKRIICPREVENRPKYYGREFHGIISREQADELLGGVEGAYILRESQRQPGCYTLALRFGNQTLNYRLFHDGKHFVGEKRFESIHDLVTDGLITLYIETKAAEYISKMTTNPIYEHIGYATLLREKVSRRLSRSKNEPRKTNVTHEEHTAVEKISSLVRRAALTHNDNHFNYEKTHNFKVHTFRGPHWCEYCANFMWGLIAQGVRCSDCGLNVHKQCSKHVPNDCQPDLKRIKKVYCCDLTTLVKAHNTQRPMVVDICIREIEARGLKSEGLYRVSGFTEHIEDVKMAFDRDGEKADISANVYPDINIITGALKLYFRDLPIPVITYDTYSKFIDAAKISNADERLEAVHEVLMLLPPAHYETLRYLMIHLKKVTMNEKDNFMNAENLGIVFGPTLMRPPEDSTLTTLHDMRYQKLIVQILIENEDVLF"}}, "biological_target": "T1, GST-p23/Tmp21 (aa 1-219), from pEBG-p23/Tmp21 (full-length) (UniProt P49755 32-219)", "T1 sequence (looked up)": "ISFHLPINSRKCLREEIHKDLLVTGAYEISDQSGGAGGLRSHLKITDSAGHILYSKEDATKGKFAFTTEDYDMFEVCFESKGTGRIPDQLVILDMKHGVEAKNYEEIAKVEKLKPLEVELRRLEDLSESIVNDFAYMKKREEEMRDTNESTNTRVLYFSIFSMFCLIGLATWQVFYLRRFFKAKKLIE", "experiment": "pull-down", "data": [{"binder": "B1", "values": [{"measurement": "fold increase in association with PMA against vehicle (densitometry)", "result": "~7", "unit": "fold"}]}]}
